This passage reports activity and Kd results from US20190262398, “TIM3 HOMING ENDONUCLEASE VARIANTS, COMPOSITIONS, AND METHODS OF USE” (bluebird bio, Inc., published 2019).

For series [1], the target named is T1, TIM3_rd3.22 HE (I-OnuI variant), mammalian expression (Artificial (I-OnuI from Ophiostoma …)).
T1 chain: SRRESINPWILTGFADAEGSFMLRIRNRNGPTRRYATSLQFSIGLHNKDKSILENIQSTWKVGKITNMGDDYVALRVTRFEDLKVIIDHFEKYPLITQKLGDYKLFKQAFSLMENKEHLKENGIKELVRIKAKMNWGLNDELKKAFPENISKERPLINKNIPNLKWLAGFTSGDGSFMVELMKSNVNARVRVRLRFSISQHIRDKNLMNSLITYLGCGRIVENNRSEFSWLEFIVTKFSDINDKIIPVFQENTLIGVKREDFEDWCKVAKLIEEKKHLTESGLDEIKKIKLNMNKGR
In words: cell_activity; HEK293T chromosomal mCherry reporter; approx 4-fold higher rate of mCherry cells after refinement. The procedure:
The activity of reprogrammed I-OnuI HEs that target exon 2 of the TIM3 gene was measured using a chromosomally integrated fluorescent reporter system (Certo et. al., 2011). Fully reprogrammed I-OnuI HEs that bind and cleave the TIM3 target sequence were cloned into mammalian expression plasmids and then individually transfected into a HEK 293T […] cell line that was reprogrammed to contain the TIM3 target sequence upstream of an out-of-frame gene encoding the fluorescent mCherry protein. Cleavage of the embedded target site by the HE and the subsequent accumulation of small insertions or deletions, caused by DNA repair via the non-homologous end joining (NHEJ) pathway, results in approximately one out of three repaired loci placing the fluorescent reporter gene back “in-frame”. mCherry fluorescence is therefore a readout of endonuclease activity at the chromosomally embedded target sequence. […] FIG. 3 (top panel).
A secondary I-OnuI variant library was generated by performing random mutagenesis on one of the reprogrammed I-OnuI HEs that targets the TIM3 target site identified in the initial reporter screen (TIM3_rd1.12, SEQ ID NO: 6). In addition, display-based flow sorting was performed under more stringent cleavage conditions in an effort to isolate variants with improved catalytic efficiency. FIG. 3 (middle panel). […]

Series [2] deals with T2, TIM3_rd3.22 HE (I-OnuI variant) (Artificial (I-OnuI from Ophiostoma …)).
T2 chain: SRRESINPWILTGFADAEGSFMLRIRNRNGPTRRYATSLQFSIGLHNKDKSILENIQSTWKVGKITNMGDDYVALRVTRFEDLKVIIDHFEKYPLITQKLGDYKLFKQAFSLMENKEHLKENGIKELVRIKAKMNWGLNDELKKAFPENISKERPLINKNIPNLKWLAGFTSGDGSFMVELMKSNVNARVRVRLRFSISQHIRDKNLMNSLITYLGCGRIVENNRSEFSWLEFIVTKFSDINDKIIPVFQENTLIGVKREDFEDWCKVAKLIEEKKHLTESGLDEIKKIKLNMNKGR
Description: flow; yeast surface display substrate titration; stated as subnanomolar affinity. To be noted: tags: yeast surface display.

B1: TIM3 exon 2 HE target site (dsDNA)
DNA 1: TGTCCAATAATTCACATCCCTT
DNA 2: AAGGGATGTGAATTATTGGACA
What is called Kd is the free concentration of one partner at which half of the binding sites on the other are occupied at equilibrium, for simple one-to-one binding. High values mean weaker binding, low ones tighter binding. In series [1], B1 had an activity of about 4 fold. Moreover, the Kd in series [2] is under 1 nM.
